Consider two molecules from patent US20090047285A1 (ONCOMED PHARMACEUTICALS, published 2009).

In one test the target is T1, mNotch3(EGF9-14)Fc (mouse, UniProt Q61982 352-581).
T1 construct: domain: EGF9-14; also called murine Notch3; selected antigen; not shown: Fc
T1 sequence (looked up): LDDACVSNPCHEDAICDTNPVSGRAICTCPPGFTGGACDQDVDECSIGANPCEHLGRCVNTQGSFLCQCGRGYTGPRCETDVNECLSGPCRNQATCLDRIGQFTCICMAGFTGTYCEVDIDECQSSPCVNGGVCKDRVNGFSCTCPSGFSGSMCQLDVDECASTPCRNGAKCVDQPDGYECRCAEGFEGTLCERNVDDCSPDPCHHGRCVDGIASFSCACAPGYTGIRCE
Put plainly: survey of fAbs after phage display selection on mNotch3(EGF9-14)Fc.

Test [1] concerns the target T2, full length Notch1 E424Q, expressed on HEK 293 cells (human, UniProt P46531 19-2555).
T2 construct: whole, on cells; also called mutated receptor (E424Q)
Put plainly: FACS on transfected HEK 293 cells (FIG. 5).

In test [2] the target is T3, hNotch3 glutamate ligand binding region protein (EGF10-15 as printed), immobilized on a CM5 chip (human, UniProt Q9UM47 351-580).
T3 construct: domain: EGF10-15; For Notch3 the equivalent repeats would be EGF9-14
T3 sequence (looked up): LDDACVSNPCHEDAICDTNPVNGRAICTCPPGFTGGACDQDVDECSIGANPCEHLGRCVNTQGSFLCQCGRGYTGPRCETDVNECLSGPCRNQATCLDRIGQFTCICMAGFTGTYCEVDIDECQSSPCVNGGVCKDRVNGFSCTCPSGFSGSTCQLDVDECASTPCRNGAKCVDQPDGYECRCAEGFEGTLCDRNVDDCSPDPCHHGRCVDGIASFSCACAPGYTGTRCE
Put plainly: Biacore 2000, Notch ligand binding region protein on CM5 chip, antibody 25 to 0.20 nM. The method, then: (§1) The KD's of certain anti-Notch glutamate ligand binding region antibodies were determined using the Biacore 2000 system from Biacore Lifesciencse (GE Healthcare). Specifically, purified anti-Notch glutamate ligand binding region antibodies were serially diluted in 2-fold increments from 25 to 0.20 nM in PBS with HBS-P (0.01 M HEPES pH 7.4, 0.15 M NaCl, 0.005% v/v Surfactant P20). Each dilution was tested against Notch glutamate ligand binding region proteins (EGF10-15) immobilized onto a CM5 Biacore chip. The association and dissociation rates were measured and KD values determined using the Biaevaluation software program. NB in the table below means a binding affinity as measured by a KD that is at least ten-fold weaker than the notch-ligand (delta-like ligand) affinity constant.

Test [3] concerns the target T4, hNotch1 glutamate ligand binding region protein (EGF10-15), immobilized on a CM5 chip (human, UniProt P46531 375-601).
T4 construct: domain: EGF10-15
Put plainly: Biacore 2000, Notch EGF10-15 protein on CM5 chip, antibody 25 to 0.20 nM. The procedure:
as §1
(Surface plasmon resonance follows binding to a sensor surface in real time, without labels.)

Test [4] has as its target T5, mNotch1 glutamate ligand binding region protein (EGF10-15), immobilized on a CM5 chip (mouse, UniProt Q01705 375-601).
T5 construct: domain: EGF10-15
T5 sequence (looked up): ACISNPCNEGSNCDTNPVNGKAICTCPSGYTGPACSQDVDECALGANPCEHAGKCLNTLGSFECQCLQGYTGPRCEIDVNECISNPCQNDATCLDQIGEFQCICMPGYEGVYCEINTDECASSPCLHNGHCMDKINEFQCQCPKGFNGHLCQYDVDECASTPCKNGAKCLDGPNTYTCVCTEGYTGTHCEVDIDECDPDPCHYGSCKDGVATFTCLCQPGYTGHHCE
Described as above. The procedure:
as §1

T2 sequence (P46531 19-2555 E424Q): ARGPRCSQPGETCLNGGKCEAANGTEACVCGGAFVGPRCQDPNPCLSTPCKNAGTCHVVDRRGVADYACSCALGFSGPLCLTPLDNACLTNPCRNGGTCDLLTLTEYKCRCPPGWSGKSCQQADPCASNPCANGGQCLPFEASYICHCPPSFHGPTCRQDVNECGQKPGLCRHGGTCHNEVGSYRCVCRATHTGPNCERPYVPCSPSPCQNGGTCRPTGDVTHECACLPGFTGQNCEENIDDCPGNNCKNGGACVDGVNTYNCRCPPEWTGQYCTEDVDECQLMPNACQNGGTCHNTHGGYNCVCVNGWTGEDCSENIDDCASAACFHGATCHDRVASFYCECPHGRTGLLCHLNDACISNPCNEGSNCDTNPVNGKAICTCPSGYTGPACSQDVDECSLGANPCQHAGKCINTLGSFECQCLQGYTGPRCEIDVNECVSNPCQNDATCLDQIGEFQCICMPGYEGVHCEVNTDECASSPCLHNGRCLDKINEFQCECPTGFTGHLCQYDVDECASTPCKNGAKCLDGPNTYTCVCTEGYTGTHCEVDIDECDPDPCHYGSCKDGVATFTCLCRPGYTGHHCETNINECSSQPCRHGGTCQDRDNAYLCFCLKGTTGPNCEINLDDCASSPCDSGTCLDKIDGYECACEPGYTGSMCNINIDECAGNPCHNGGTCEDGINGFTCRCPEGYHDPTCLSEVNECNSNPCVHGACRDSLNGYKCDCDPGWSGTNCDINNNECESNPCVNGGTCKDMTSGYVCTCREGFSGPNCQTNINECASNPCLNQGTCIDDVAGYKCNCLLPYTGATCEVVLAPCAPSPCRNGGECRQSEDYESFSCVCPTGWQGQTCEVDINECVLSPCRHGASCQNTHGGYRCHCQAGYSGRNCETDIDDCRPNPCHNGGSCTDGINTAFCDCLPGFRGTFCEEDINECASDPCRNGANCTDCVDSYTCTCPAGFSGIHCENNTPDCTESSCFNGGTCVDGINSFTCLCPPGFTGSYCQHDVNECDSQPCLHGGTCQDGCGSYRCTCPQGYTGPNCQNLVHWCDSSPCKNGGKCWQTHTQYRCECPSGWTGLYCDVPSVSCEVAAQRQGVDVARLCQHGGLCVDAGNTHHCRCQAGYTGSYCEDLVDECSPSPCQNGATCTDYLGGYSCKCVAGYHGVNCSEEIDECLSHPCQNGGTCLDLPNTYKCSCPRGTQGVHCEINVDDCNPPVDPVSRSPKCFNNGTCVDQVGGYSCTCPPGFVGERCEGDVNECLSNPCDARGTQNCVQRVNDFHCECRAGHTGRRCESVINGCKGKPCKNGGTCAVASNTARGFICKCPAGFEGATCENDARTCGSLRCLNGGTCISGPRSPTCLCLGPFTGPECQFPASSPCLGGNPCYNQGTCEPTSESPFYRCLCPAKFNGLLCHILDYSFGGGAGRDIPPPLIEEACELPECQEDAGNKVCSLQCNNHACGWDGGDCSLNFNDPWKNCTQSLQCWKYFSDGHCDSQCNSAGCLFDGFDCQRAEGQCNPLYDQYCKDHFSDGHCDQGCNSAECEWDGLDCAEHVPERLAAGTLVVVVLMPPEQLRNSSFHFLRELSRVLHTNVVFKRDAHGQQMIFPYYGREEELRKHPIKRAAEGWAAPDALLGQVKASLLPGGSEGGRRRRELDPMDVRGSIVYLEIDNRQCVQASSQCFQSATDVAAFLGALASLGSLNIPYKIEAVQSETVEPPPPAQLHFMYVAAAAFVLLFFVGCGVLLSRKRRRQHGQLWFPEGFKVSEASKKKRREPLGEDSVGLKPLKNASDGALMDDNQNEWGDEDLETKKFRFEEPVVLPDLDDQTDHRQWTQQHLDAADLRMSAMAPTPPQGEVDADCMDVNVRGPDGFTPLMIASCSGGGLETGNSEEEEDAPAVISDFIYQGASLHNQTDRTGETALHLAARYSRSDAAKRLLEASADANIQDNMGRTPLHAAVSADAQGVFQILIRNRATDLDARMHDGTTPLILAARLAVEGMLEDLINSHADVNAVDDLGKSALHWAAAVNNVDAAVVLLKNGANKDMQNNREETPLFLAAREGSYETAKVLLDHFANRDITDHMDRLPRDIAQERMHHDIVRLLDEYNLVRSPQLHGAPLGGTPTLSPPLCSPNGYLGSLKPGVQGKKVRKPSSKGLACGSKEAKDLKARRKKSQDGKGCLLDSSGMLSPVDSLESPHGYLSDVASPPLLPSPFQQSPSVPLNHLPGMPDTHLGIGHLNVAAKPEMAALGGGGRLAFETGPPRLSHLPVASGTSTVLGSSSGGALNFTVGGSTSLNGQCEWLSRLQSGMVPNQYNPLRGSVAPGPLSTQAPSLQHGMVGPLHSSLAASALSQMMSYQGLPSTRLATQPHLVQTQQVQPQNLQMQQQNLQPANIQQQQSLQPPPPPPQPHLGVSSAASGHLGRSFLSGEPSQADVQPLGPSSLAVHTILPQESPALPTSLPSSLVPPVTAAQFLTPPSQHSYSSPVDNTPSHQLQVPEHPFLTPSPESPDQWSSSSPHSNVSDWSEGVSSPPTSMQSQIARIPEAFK

B1: 122R5 (Fab, V domains shown)
VH: QVQLVESGGGLVQPGGSLRLSCAASGFTFSDNAIHWVRQAPGKGLEWVSAISSYGSGTYYADSVKGRFTISRDNSKNTLYLQMNSLRAEDTAVYYCARPGFQFSFTFMDIWGQGTLVTVSS
VL: DIELTQPPSVSVAPGQTARISCSGDALGSKYASWYQQKPGQAPVLVIYDDKNRPSGIPERFSGSNSGNTATLTISGTQAEDEADYYCQSWDGKSKVVFGGGTKLTVLG
notes: Human fAb from phage display; also called fAb122R5; lead fAb, 122R5
The Kd is the concentration at which binding is half-saturated. High values mean weaker binding, low ones tighter binding. B1: the binding result with mNotch3(EGF9-14)Fc was “binds”; in test [1], “no binding”. Further, the Kd in test [2] is under 0.1 nM; in test [3], 4.25 nM.

B2: 90R21 (antibody, V domains shown)
VH: EVQLLESGGGLVQPGGSLRLSCAASGFTFSNYGMSWVRQAPGKGLEWVSSISGYGSNTYYADSVKGRFTISRDNSKNTLYLQMNSLRAEDTAVYYCARISQQAVWGQGTLVTVSS
VL: QSALTQPASVSGSPGQSITISCTGTSSDIGGYQYVSWYQQHPGKAPKLMIYYVSNRPSGVSNRFSGSKSGNTASLTISGLQAEDEADYYCQSADSSSWVFGGGTKLTVLG
notes: also called ATCC deposit No. PTA-8909
For B2, the Kd in test [4] was 0.25 nM; in test [3], under 0.1 nM.
